US20240141038A1 (SHANGHAI QILU PHARMACEUTICAL RESEARCH AND DEVELOPMENT CENTRE, published 2024)

B1: NKp46-PA31 VHH (his and c-Myc labels) (VHH)
VHH: DVQLVESGGGLVQAGDSLRLSCAVSGRTFSRLPMGWFRQGPGKDREFVAAISWSSSTTYYADSVKGRFFISRDNAKNTAYLQMNNLRLEDTAVYYCAAVGGSLDYSATVVYTAARAYADWGQGTLVTVSS
notes: IPTG-induced E. coli supernatant used in the screening ELISA; also called NKp46-PA31 clone supernatant; not shown: his and c-Myc labels
B2: NKp46-PC1 VHH (his and c-Myc labels) (VHH)
VHH: QVQLVESGGGSVQAGGSLTLSCATSGYTYRTDCMGWFRQAPGKEREGLATIYTSDGRTDYANSVKGRFTISQDNAKNTLYLHMNNLKPEDTAIYYCAADPQYGGVCPSGGWNYWGQGTQVTVSS
notes: IPTG-induced E. coli supernatant used in the screening ELISA; also called NKp46-PC1 clone supernatant; not shown: his and c-Myc labels
B3: NKp46-PC7 VHH (his and c-Myc labels) (VHH)
VHH: EVQLVESGGGSVQAGGSLRLSCAASGYTYRTDCMGWFRQAPGKEREGLATIYTSDGRTAYADSVKGRFTISQDNAKNTLYLDMNTLKPEDTAMYYCAADLQYGGSCPSGGWKYWGQGTLVTVSS
notes: IPTG-induced E. coli supernatant used in the screening ELISA; also called NKp46-PC7 clone supernatant; not shown: his and c-Myc labels
B4: NKp46-PC3 VHH (his and c-Myc labels) (VHH)
VHH: DVQLVESGGGSVEAGGSLRLSCAASGYRQRTMGWFRQAPGKAREGVACIYTGPTTTFTDYADSVKGRFTITQDNAKNTVYLQMNSLKPEDTAMYYCAANLAYPLTIIPDTRWGQGTQVTVSS
notes: IPTG-induced E. coli supernatant used in the screening ELISA; also called NKp46-PC3 clone supernatant; not shown: his and c-Myc labels
B5: NKp46-PA34 VHH (his and c-Myc labels) (VHH)
VHH: QVQLVESGGGLVQTGGSLRLSCAASGSTSSFYRMGWFRQAPGKEREAVARISSSAGLIYYVDSVKGRFTISRAGAKNTVYLQMNSLKPEDTAVYYCAADRHGTRWDYWGQGTQVTVSS
notes: IPTG-induced E. coli supernatant used in the screening ELISA; also called NKp46-PA34 clone supernatant; not shown: his and c-Myc labels
B6: NKp46-PA36 VHH (his and c-Myc labels) (VHH)
VHH: QVQLVESGGGLVQAGGSLRLSCAASGRSFSRYAMGWFRQAPGKERDFVAAISSSGDPTYYADSVKGRFTISRVNAKNTVYLQMNSVNPGDTAVYYCAAGLTARDTTVVVHPNGYSYWGQGTQVTVSS
notes: IPTG-induced E. coli supernatant used in the screening ELISA; also called NKp46-PA36 clone supernatant; not shown: his and c-Myc labels
B7: NKp46-PA40 VHH (his and c-Myc labels) (VHH)
VHH: QVQLVESGGGLVQAGGSLRLSCAASGRTFSRYSMGWFRQAPGKEREFVAAISSSGDVTHYADSAKGRFIISRDNAKNTVSLQVNSVNLEDTAVYYCAASLTARATTVTVHPNGYNYWGQGTQVTVSS
notes: IPTG-induced E. coli supernatant used in the screening ELISA; also called NKp46-PA40 clone supernatant; not shown: his and c-Myc labels
B8: NKp46-PA45 VHH (his and c-Myc labels) (VHH)
VHH: QVQLVESGGGLVQAGGSLRLLCAASGRTFSRLPMAWFRQGPGKDREFVAAISWSGGSTYYADSMKGRFTISRDNAKNTAYLQMNSLRLEDTAVYYCAAVGDSAPYSATIVYTDARAYAYWGQGTQVTVSS
notes: IPTG-induced E. coli supernatant used in the screening ELISA; also called NKp46-PA45 clone supernatant; not shown: his and c-Myc labels
B9: NKp46-PA63 VHH (his and c-Myc labels) (VHH, not shown: small tags and cut ends)
VHH: EVQLVESGGGLVQPGGSLRLSCAASGRTSTSYAMGWFRQAPGKEREFVAAINRSGDFPYYADSVKGRFTIFRDNAKNTVYLQMSSVKPEDTGVYFCAAAPRAPATQVVISAFGYEYWGQGTQVTVSS
notes: also called NKp46-PA63 clone supernatant
B10: NKp46-PA69 VHH (his and c-Myc labels) (VHH)
VHH: QVQLVESGGGLIQAGGSLRLSCVASERSLTLYAMGWFRQAPGLEREFVAGISRTGDTTYSPDSVKGRFTISRDNAKNVLYLQMNSLKPDDTAVYYCAASATYSATNIYTHQRAYGDWGQGTQVTVSS
notes: IPTG-induced E. coli supernatant used in the screening ELISA; also called NKp46-PA69 clone supernatant; not shown: his and c-Myc labels
B11: NKp46-PC4 VHH (his and c-Myc labels) (VHH)
VHH: EVQLVESGGGSVQAGGSLRLSCTVSGYTGTIEYMGWGWFRQAPGKEREGVAYINTGGGTSVYDDSVKGRFTISKDDVNLTVYLQMNSLKPEDTAIYYCATGSFFGIWYKVPATQYFHYWGQGTQVTVSS
notes: IPTG-induced E. coli supernatant used in the screening ELISA; also called NKp46-PC4 clone supernatant; not shown: his and c-Myc labels
B12: NKp46-PC6 VHH (his and c-Myc labels) (VHH)
VHH: DVQLVESGGGSVQAGGSLRLSCAASGYRSRHYCMGWFRQFPGKERERVALINTGGPTTFYADFVEGRFTISLDNAKNTLSLQMNSLKPEDTAMYYCAAGPPSSDSGSGCYVPEYMYNYWGQGTQVTVSS
notes: IPTG-induced E. coli supernatant used in the screening ELISA; also called NKp46-PC6 clone supernatant; not shown: his and c-Myc labels
B13: NKp46-PC8 VHH (his and c-Myc labels) (VHH)
VHH: EVQLVESGGGSVQAGGSLRLSCAVSRGSMASTGCMAWFRQTPGKEREAVAIINISGTTRYTDSVKGRFTIAQDSAKNTLTLQMNSLKPEDTGMYYCAATQNPRTVGRGYCTGDYFQVGGGGYSFWGQGTQVTVSS
notes: IPTG-induced E. coli supernatant used in the screening ELISA; also called NKp46-PC8 clone supernatant; not shown: his and c-Myc labels
B14: NKp46-PC9 VHH (his and c-Myc labels) (VHH)
VHH: QVQLVESGGGSVQAGGSLRLSCAASGYTYRRYCMAWFRQGPGKEREGVACLDRDGSTTYADSVKGRFTISRDNANDTLYLQMNSLKPEDTALYRCAAAQPGDCWGRRYGFNTWGQGTLVTVSS
notes: IPTG-induced E. coli supernatant used in the screening ELISA; also called NKp46-PC9 clone supernatant; not shown: his and c-Myc labels
B15: NKp46-PC11 VHH (his and c-Myc labels) (VHH)
VHH: DVQLVESGGGSVQAGGSLRLSCAPSPYSANSFSMAWFRQVPGKEREGIACIQAESGSTNVAPSVKGRFSISQDNAKNTLYLQMNNLKPEDTAMYYCAAFKRNVGGCELRPEHWRFWGQGTLVTVSS
notes: IPTG-induced E. coli supernatant used in the screening ELISA; also called NKp46-PC11 clone supernatant; not shown: his and c-Myc labels
B16: NKp46-PC12 VHH (his and c-Myc labels) (VHH)
VHH: QVQLVESGGGSVQTGGSLRLSCTAPGFTTDSCGMDWYRQAAGKQREWVSRIRPDGRTDYVESVKGRFTISEDKAKYTVYLQMNSLKPEDTAMYSCTTWGLCTAKFRWGQGTQVTVSS
notes: IPTG-induced E. coli supernatant used in the screening ELISA; also called NKp46-PC12 clone supernatant; not shown: his and c-Myc labels
B17: NKp46-PC13 VHH (his and c-Myc labels) (VHH)
VHH: DVQLVESGGGSVQAGGSLRLSCAASGYTRSIYYMGWFRQAPGKEREGVAVMHTGGGSTYYTDSVKGRFTISQDNAKNTVYLQMNSLKPEDTAMYYCAASKYLLAFGGVEWILRPAGGWDYWAQGTQVTVSS
notes: IPTG-induced E. coli supernatant used in the screening ELISA; also called NKp46-PC13 clone supernatant; not shown: his and c-Myc labels
B18: NKp46-PC16 VHH (his and c-Myc labels) (VHH)
VHH: DVQLVESGGGLVQPGGSLRLSCAISGFTFSIVSMSWVRQAPGKGPERVSWINGDSSNTSYADSVKGRFTISRDNARNMLYLQMNSLKSEDTARYYCTTQNSHYDIRFGYWGQGTQVTVSS
notes: IPTG-induced E. coli supernatant used in the screening ELISA; also called NKp46-PC16 clone supernatant; not shown: his and c-Myc labels
B19: NKp46-PA2 VHH (his and c-Myc labels) (VHH)
VHH: DVQLVESGGGLVQAGGSLRLSCAASGRTLSSYAMGWFRQAPGLEREFVAAISRISGDTYSPDSVKGRFTISRDNAKNTLYLQMNSLKPEDTAVYYCAASATPSATNIYTNQYAYGDWGQGTQVTVSS
notes: IPTG-induced E. coli supernatant used in the screening ELISA; also called NKp46-PA2 clone supernatant; not shown: his and c-Myc labels
B20: NKp46-PC2 VHH (his and c-Myc labels) (VHH)
VHH: QVQLVESGGGLVQPGGSLRLSCAASGFAFSNYNMFWVRQAPGEGFEWISVINRGGDTADYAASVKGRFTISRDNAKNTLYLQMNSLKTEDTAVYYCARDPLGTTRGQGTLVTVSS
notes: IPTG-induced E. coli supernatant used in the screening ELISA; also called NKp46-PC2 clone supernatant; not shown: his and c-Myc labels
B21: NKp46-PA3 VHH (his and c-Myc labels) (VHH)
VHH: DVQLVESGGGLVQAGGSLRLSCAASGRTFNTIHWFRQAPGKEREFVARIWWIERTTFYAASVKGRFTISRDNAKNMVYLQMNSLKPEDTAVYYCAADARYTGSRRWESDYWGQGTQVTVSS
notes: IPTG-induced E. coli supernatant used in the screening ELISA; also called NKp46-PA3 clone supernatant; not shown: his and c-Myc labels
B22: NKp46-PA22 VHH (his and c-Myc labels) (VHH)
VHH: QVQLVESGGGLVQAGGSLRLSCTASGRTFETLHWFRQAPGKEREFVARIWWIGGATFYADSVKGRFTISRDNAKNMVYLQMNSLKPEDTAIYYCAADARYTSNRRWESDYWGQGTQVTVSS
notes: IPTG-induced E. coli supernatant used in the screening ELISA; also called NKp46-PA22 clone supernatant; not shown: his and c-Myc labels

The binders below were run against T1, Cynomolgus monkey NKp46 for immunization, screening, and testing (Kactus, NKP-CM146) (cynomolgus monkey, UniProt Q95JB9 22-254) (assay: ELISA, coated antigen, VHH supernatant, anti-Myc HRP).
T1 construct: Bought protein; also called monkey NKp46 antigen protein; cynomolgus monkey NKp46 antigen
Method: (§1) In order to obtain positive antibodies that can cross-bind to human NKp46 and cynomolgus monkey NKp46, the above libraries were amplified and added into M13K07 helper phage and assembled into bacteriophages. 1×10¹² pfu of immune camel antibody library and immune alpaca antibody library were added thereto, and the phages were incubated with biotinylated human NKp46 protein (8 μg/mL) bound to magnetic beads for 1 h at room temperature. After washing off the unbound bacteriophages with 0.05% PBST, the phages specifically bound to NKp46 were eluted with […] triethylamine, and after gradient dilution of the bacteriophages above, E. coli SS320 in the logarithmic growth phase were infected. After being cultured overnight at 37° C. on plates containing ampicillin, single-clone was picked for IPTG-induced expression, and the supernatant was used for ELISA assay. ELISA plates were coated with […] human NKp46 antigen or cynomolgus monkey NKp46 antigen overnight at 4° C., then washed 3 times with 0.05% PBST and blocked with 5% skim milk at room temperature for 1 h, and washed 3 times with 0.05% PBST. Then 30 µL of induced supernatant was then added into per well, medium were added to negative control wells, the ELISA plates were incubated at room temperature for 1 h, and finally detected with anti-Myc HRP (VHH with his and c-Myc labels were expressed by the induction of IPTG. Sequence clones that had OD450 values of greater than 1.0 for binding to human NKp46 and cynomolgus monkey NKp46 as determined by ELISA, and of which the ratio of OD450 values to that of negative control were greater than 3 were sequenced, thereby obtaining amino acid sequences of 30 variable regions of heavy chain antibodies disclosed in the present disclosure, as shown in Table 2.

T1 sequence (Q95JB9 other isoform, or with tags, fused parts or gaps limits assumed): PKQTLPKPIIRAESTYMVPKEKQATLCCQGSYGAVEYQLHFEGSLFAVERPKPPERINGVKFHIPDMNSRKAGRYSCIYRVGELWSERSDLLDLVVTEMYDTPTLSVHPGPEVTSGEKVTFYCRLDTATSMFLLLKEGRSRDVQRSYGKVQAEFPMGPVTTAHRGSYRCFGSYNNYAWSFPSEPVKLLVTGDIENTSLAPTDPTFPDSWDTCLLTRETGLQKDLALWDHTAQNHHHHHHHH

OD450, > 1:
B1
B2
B3
B4
B5
B6
B7
B8
B9
B10
B11
B12
B13
B14
B15
B16
B17
B18
B19
B20
B21
B22

Ratio of OD450 to negative control, > 3:
B1
B2
B3
B4
B5
B6
B7
B8
B9
B10
B11
B12
B13
B14
B15
B16
B17
B18
B19
B20
B21
B22

Each binder was assayed against T2, Human NKp46 antigen for immunization, screening, and testing (Kactus, NKP-HM146) (human, UniProt O76036 22-255) in the same assay as above.
T2 construct: Bought protein; also called human NKp46 antigen protein; human NKp46 protein
Method: as §1

T2 sequence (O76036 other isoform, or with tags, fused parts or gaps limits assumed): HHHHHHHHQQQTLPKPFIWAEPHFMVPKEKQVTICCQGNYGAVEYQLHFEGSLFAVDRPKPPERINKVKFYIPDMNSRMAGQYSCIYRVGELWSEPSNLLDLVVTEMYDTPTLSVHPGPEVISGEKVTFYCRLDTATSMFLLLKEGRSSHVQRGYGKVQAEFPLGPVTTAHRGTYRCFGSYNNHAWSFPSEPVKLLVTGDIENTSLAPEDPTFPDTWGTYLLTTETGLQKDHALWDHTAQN

OD450, > 1:
B1
B2
B3
B4
B5
B6
B7
B8
B9
B10
B11
B12
B13
B14
B15
B16
B17
B18
B19
B20
B21
B22

Ratio of OD450 to negative control, > 3:
B1
B2
B3
B4
B5
B6
B7
B8
B9
B10
B11
B12
B13
B14
B15
B16
B17
B18
B19
B20
B21
B22
